Measurements from publication PMC3718800, “Structural and Functional Perturbation of Giardia lamblia Triosephosphate Isomerase by Modification of a Non-Catalytic, Non-Conserved Region” (PLoS ONE, 2013).

Assay: TIM activity coupled assay, kinetic constants of WT GlTIM and C222 mutants with GAP
Format: biochemical, Giardia lamblia
Protocol: Glyceraldehyde 3-phosphate (GAP), buffers, salts and all the other analytical grade reagents were acquired from Sigma–Aldrich; α-glycerol-3-phosphate dehydrogenase (α-GDH) was from Roche, crystallization screen kits were obtained from Hampton Research. Restriction enzymes, DNA polymerase and T4 DNA ligase were purchased from New England BioLabs and Invitrogene. Oligonucleotide synthesis and DNA sequencing was performed at the Unidad de Biología Molecular, Instituto de Fisiología Celular, UNAM. Protein concentration was determined by the bicinchoninic acid method or by absorbance at 280 nm for pure GlTIM (ε280 = 26600 M^-1cm^-1). The TIM activity was determined at 25°C by a coupled assay, following the decrease in absorbance at 340 nm. The standard reaction mixture contained 100 mM triethanolamine/10 mM EDTA, pH 7.4 (TE buffer), 1 mM GAP, 0.2 mM NADH, and 0.9 units of α-GDH (20 μg/mL); the reaction was initiated by addition of 5 ng/mL of WT, C222V or C222M GlTIM, 10 ng/mL of C222N, 20 ng/mL of C222D or C222F, and 200 ng/mL of C222K. Kinetic, binding and stability data were analyzed by non-linear regression calculations with Origin software.
Determination of Km and Vmax was performed by fitting initial velocity data at GAP concentrations ranging from 0.3 to 3 mM to the Michaelis-Menten equation (v = Vmax•S/Km+S) by non-linear regression calculations. […]

B1: GlTIM: recombinant wild type triosephosphate isomerase of Giardia lamblia (protein, UniProt P36186 1-257, looked up)
Triosephosphate isomerase: MPARRPFIGGNFKCNGSLDFIKSHVAAIAAHKIPDSVDVVIAPSAVHLSTAIAANTSKQLRIAAQNVYLEGNGAWTGETSVEMLQDMGLKHVIVGHSERRRIMGETDEQSAKKAKRALEKGMTVIFCVGETLDERKANRTMEVNIAQLEALGKELGESKMLWKEVVIAYEPVWSIGTGVVATPEQAEEVHVGLRKWFAEKVCAEGAQHIRIIYGGSANGSNCEKLGQCPNIDGFLVGGASLKPEFMTMIDILTKTRT
Vmax (GAP 0.3 to 3 mM, 25°C, pH 7.4): 8050 ± 444 µmol/min/mg
kcat x 10^5 (calculated from Vmax, molecular mass 27.7 kDa): 4.4 x 10^5 min^-1
